# Assay results published in article PMC10027727, “Structure and dynamics of the Arabidopsis O-fucosyltransferase SPINDLY” (Nature Communications, 2023).
# T1: Myc-spy Δ216 (deletion of residues 1-216, the N-terminal peptide and TPRs 1-5) (Arabidopsis thaliana, UniProt Q96301 217-914)
# T1 construct: source: N. benthamiana, transient expression by agroinfiltration, in protein extract
# T1 sequence (looked up): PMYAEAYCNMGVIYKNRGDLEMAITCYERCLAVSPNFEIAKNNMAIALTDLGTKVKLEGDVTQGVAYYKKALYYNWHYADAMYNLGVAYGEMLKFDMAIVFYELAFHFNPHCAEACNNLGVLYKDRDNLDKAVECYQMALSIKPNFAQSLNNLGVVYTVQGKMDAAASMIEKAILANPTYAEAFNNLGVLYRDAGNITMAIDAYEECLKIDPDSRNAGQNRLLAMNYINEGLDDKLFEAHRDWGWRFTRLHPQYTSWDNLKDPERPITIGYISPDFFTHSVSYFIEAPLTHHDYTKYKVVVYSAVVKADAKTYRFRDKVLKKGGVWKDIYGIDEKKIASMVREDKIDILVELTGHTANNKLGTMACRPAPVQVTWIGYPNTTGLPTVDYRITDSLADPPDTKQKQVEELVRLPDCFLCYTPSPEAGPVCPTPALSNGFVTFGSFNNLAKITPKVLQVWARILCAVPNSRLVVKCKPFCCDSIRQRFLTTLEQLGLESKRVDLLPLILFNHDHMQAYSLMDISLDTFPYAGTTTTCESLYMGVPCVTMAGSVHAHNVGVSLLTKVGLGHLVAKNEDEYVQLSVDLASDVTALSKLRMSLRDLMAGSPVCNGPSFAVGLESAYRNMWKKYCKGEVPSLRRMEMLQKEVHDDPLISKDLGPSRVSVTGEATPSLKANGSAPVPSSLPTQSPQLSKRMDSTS
# B1: Recombinant full-length Arabidopsis thaliana SPINDLY (SPY-WT-TEV-His10-Strep) (enzyme, UniProt Q96301 1-914, looked up)
# chain: MVGLEDDTERERSPVVENGFSNGSRSSSSSAGVLSPSRKVTQGNDTLSYANILRARNKFADALALYEAMLEKDSKNVEAHIGKGICLQTQNKGNLAFDCFSEAIRLDPHNACALTHCGILHKEEGRLVEAAESYQKALMADASYKPAAECLAIVLTDLGTSLKLAGNTQEGIQKYYEALKIDPHYAPAYYNLGVVYSEMMQYDNALSCYEKAALERPMYAEAYCNMGVIYKNRGDLEMAITCYERCLAVSPNFEIAKNNMAIALTDLGTKVKLEGDVTQGVAYYKKALYYNWHYADAMYNLGVAYGEMLKFDMAIVFYELAFHFNPHCAEACNNLGVLYKDRDNLDKAVECYQMALSIKPNFAQSLNNLGVVYTVQGKMDAAASMIEKAILANPTYAEAFNNLGVLYRDAGNITMAIDAYEECLKIDPDSRNAGQNRLLAMNYINEGLDDKLFEAHRDWGWRFTRLHPQYTSWDNLKDPERPITIGYISPDFFTHSVSYFIEAPLTHHDYTKYKVVVYSAVVKADAKTYRFRDKVLKKGGVWKDIYGIDEKKIASMVREDKIDILVELTGHTANNKLGTMACRPAPVQVTWIGYPNTTGLPTVDYRITDSLADPPDTKQKQVEELVRLPDCFLCYTPSPEAGPVCPTPALSNGFVTFGSFNNLAKITPKVLQVWARILCAVPNSRLVVKCKPFCCDSIRQRFLTTLEQLGLESKRVDLLPLILFNHDHMQAYSLMDISLDTFPYAGTTTTCESLYMGVPCVTMAGSVHAHNVGVSLLTKVGLGHLVAKNEDEYVQLSVDLASDVTALSKLRMSLRDLMAGSPVCNGPSFAVGLESAYRNMWKKYCKGEVPSLRRMEMLQKEVHDDPLISKDLGPSRVSVTGEATPSLKANGSAPVPSSLPTQSPQLSKRMDSTS
# modifications: fully auto-O-fucosylated (sites not mapped for the insect-cell protein)
# notes: SPINDLY (SPY), Arabidopsis thaliana, full length (101.4 kDa), UniProt Q96301; The tag end is read from the construct name SPY-WT-TEV-His10-Strep; A TEV site lies between SPY and the tags; no cleavage is described; also called WT SPY; apo SPY; source: Trichoplusia ni (High Five) insect cells, baculovirus, purified (Talon, Strep-Tactin, SEC)
# B2: FLAG-RGA (35S:FLAG-RGA, pEG100-3xFR; contains a 6xHis-3xFLAG tag) (natural protein, Arabidopsis, UniProt Q9SLH3 1-587, looked up)
# chain: MKRDHHQFQGRLSNHGTSSSSSSISKDKMMMVKKEEDGGGNMDDELLAVLGYKVRSSEMAEVALKLEQLETMMSNVQEDGLSHLATDTVHYNPSELYSWLDNMLSELNPPPLPASSNGLDPVLPSPEICGFPASDYDLKVIPGNAIYQFPAIDSSSSSNNQNKRLKSCSSPDSMVTSTSTGTQIGGVIGTTVTTTTTTTTAAGESTRSVILVDSQENGVRLVHALMACAEAIQQNNLTLAEALVKQIGCLAVSQAGAMRKVATYFAEALARRIYRLSPPQNQIDHCLSDTLQMHFYETCPYLKFAHFTANQAILEAFEGKKRVHVIDFSMNQGLQWPALMQALALREGGPPTFRLTGIGPPAPDNSDHLHEVGCKLAQLAEAIHVEFEYRGFVANSLADLDASMLELRPSDTEAVAVNSVFELHKLLGRPGGIEKVLGVVKQIKPVIFTVVEQESNHNGPVFLDRFTESLHYYSTLFDSLEGVPNSQDKVMSEVYLGKQICNLVACEGPDRVERHETLSQWGNRFGSSGLAPAHLGSNAFKQASMLLSVFNSGQGYRVEESNGCLMLGWHTRPLITTSAWKLSTAAY
# notes: RGA, an Arabidopsis DELLA protein; called the full-length RGA substrate in planta; RGA is O-fucosylated by the co-expressed SPY to differing degrees; also called His-FLAG-RGA; source: N. benthamiana, transient expression by agroinfiltration, in protein extract
# Legend:
# [1] = biological target: the molecule itself; experiment: cryo-EM structure; apo SPY, ~0.8 mg/mL, 25 mM HEPES pH 7.5, 150 mM NaCl, 2 mM DTT; three conformations of the dimer at 3.6 to 3.9 Å
# [2] = biological target: the molecule itself; experiment: cryo-EM 2D class averages; apo SPY, flash-frozen solution; tetramer formed by side-by-side stacking of two SPY dimers
# [3] = biological target: T1, Myc-spy Δ216 (deletion of residues …); experiment: co-IP; FLAG-RGA co-expressed with Myc-SPY, Myc-spy mutants or Myc-GUS in N. benthamiana; IP with anti-cMyc agarose, blots with αMyc and αFLAG; co-IP'ed FLAG-RGA normalised to the IP'ed Myc protein, WT SPY set as 1; conditions: partners not purified
binder,measurement,setting,value
B1,stoichiometry N,[1],2
same,stoichiometry N,[2],4
B2,fold change of co-IP'ed FLAG-RGA against WT SPY,[3],6.3 fold
